Measurements from US20200392227A1 (LYVGEN BIOPHARMA, published 2020).

T1: human FcRIIB/C protein (MednaBio, E1034) (human, UniProt P31994 43-217, limits assumed)
T1 construct: Bought as FcRIIB/C; also called FcγRIIB; CD32B
T1 sequence (looked up): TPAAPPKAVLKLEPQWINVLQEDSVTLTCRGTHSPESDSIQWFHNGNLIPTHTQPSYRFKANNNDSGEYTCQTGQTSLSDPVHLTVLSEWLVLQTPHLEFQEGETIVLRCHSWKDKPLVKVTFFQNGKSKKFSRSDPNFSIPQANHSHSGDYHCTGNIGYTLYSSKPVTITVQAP

T2: human FcRIIA protein (MednaBio, E1033) (human, UniProt P12318 34-218, limits assumed)
T2 construct: Bought; also called FcγRIIA
T2 sequence (looked up): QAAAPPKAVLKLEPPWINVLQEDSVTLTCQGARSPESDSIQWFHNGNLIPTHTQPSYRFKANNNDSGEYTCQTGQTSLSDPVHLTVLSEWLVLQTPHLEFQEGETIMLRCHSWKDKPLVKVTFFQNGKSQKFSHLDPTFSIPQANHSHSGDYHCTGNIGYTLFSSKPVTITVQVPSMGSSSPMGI

T3: human FcγRIIC expressed on CHO cells (human, UniProt P31995 43-323)
T3 construct: whole, on cells
T3 sequence (looked up): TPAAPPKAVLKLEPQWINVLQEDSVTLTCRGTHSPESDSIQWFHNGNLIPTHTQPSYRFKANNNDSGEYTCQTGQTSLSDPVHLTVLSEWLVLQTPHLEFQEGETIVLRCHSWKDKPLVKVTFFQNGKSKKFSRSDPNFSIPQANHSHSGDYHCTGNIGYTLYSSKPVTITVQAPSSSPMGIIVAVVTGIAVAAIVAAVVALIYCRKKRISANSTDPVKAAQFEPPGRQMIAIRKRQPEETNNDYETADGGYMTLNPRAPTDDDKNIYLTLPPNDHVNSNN

B1: anti-CD137 IgG1 with Fc variant G1m5 (antibody)
heavy: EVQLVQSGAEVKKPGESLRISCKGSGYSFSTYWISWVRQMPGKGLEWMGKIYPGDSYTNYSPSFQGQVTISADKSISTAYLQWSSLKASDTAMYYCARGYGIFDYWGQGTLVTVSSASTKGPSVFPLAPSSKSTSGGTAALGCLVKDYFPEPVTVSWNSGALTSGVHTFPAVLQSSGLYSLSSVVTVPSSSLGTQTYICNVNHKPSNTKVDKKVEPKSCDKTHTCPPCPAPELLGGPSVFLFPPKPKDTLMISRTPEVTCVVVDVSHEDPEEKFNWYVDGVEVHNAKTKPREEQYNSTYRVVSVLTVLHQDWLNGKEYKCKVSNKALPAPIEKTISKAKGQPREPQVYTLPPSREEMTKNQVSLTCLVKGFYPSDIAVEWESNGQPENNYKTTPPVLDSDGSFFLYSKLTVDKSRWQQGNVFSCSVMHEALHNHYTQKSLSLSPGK
light: SYELTQPPSVSVSPGQTASITCSGDNIGDQYAHWYQQKPGQSPVLVIYQDKNRPSGIPERFSGSNSGNTATLTISGTQAMDEADYYCATYTGFGSLAVFGGGTKLTVLGQPKAAPSVTLFPPSSEELQANKATLVCLISDFYPGAVTVAWKADSSPVKAGVETTTPSKQSNNKYAASSYLSLTPEQWKSHRSYSCQVTHEGSTVEKTVAPTECS
notes: copies: 2 + 2
B2: anti-CD137 IgG1 with Fc variant G1m7 (antibody)
heavy: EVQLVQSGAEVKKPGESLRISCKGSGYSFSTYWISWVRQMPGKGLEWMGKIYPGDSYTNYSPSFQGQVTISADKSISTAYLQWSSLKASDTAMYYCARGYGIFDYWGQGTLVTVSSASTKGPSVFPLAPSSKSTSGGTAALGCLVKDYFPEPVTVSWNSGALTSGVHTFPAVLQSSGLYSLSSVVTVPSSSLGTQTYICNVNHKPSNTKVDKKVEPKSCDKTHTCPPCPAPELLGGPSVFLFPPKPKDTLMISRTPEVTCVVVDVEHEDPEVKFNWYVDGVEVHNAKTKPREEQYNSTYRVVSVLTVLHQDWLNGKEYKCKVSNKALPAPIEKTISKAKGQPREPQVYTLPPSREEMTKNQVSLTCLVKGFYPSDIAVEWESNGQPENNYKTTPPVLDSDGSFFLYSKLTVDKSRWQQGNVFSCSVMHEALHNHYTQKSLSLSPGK
light: B1 light
notes: copies: 2 + 2
B3: anti-CD137 IgG1 with Fc variant G1m9 (antibody)
heavy: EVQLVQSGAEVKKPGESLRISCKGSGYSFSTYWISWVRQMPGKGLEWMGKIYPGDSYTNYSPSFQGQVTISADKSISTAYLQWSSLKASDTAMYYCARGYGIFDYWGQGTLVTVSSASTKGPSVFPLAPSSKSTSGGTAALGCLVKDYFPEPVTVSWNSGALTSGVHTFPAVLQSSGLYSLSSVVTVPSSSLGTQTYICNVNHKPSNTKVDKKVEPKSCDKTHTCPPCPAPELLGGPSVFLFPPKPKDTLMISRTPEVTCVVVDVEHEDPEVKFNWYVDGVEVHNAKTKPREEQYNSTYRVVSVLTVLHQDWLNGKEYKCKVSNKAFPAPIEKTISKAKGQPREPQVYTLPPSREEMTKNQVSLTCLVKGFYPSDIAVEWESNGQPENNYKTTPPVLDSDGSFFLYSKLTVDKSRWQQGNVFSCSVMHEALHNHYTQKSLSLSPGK
light: B1 light
notes: copies: 2 + 2
B4: anti-CD137 IgG1 with Fc variant G1m8 (antibody)
heavy: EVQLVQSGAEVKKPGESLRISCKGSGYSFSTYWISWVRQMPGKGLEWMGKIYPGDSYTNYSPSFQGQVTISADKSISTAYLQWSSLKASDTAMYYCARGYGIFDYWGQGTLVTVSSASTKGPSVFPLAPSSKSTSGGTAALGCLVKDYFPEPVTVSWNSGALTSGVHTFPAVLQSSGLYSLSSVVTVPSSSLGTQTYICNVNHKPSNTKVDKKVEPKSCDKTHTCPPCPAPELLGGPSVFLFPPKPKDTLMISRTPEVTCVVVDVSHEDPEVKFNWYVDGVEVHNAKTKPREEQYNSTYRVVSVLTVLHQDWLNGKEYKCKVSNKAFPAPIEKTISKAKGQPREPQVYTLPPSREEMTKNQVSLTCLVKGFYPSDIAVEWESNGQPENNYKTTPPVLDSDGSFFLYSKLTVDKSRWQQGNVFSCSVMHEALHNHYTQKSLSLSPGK
light: B1 light
notes: copies: 2 + 2
B5: anti-CD137 IgG1 with Fc variant G1m29 (antibody)
heavy: EVQLVQSGAEVKKPGESLRISCKGSGYSFSTYWISWVRQMPGKGLEWMGKIYPGDSYTNYSPSFQGQVTISADKSISTAYLQWSSLKASDTAMYYCARGYGIFDYWGQGTLVTVSSASTKGPSVFPLAPSSKSTSGGTAALGCLVKDYFPEPVTVSWNSGALTSGVHTFPAVLQSSGLYSLSSVVTVPSSSLGTQTYICNVNHKPSNTKVDKKVEPKSCDKTHTCPPCPAPELLGPSVFLFPPKPKDTLMISRTPEVTCVVVDVEHEDPEVKFNWYVDGVEVHNAKTKPREEQYNSTYRVVSVLTVLHQDWLNGKEYKCKVSNKAFPAPIEKTISKAKGQPREPQVYTLPPSREEMTKNQVSLTCLVKGFYPSDIAVEWESNGQPENNYKTTPPVLDSDGSFFLYSKLTVDKSRWQQGNVFSCSVMHEALHNHYTQKSLSLSPGK
light: B1 light
notes: copies: 2 + 2
B6: anti-CD137 IgG1 with Fc variant G1m18 (antibody)
heavy: EVQLVQSGAEVKKPGESLRISCKGSGYSFSTYWISWVRQMPGKGLEWMGKIYPGDSYTNYSPSFQGQVTISADKSISTAYLQWSSLKASDTAMYYCARGYGIFDYWGQGTLVTVSSASTKGPSVFPLAPSSKSTSGGTAALGCLVKDYFPEPVTVSWNSGALTSGVHTFPAVLQSSGLYSLSSVVTVPSSSLGTQTYICNVNHKPSNTKVDKKVEPKSCDKTHTCPPCPAPELLSVFLFPPKPKDTLMISRTPEVTCVVVDVSHEDPEVKFNWYVDGVEVHNAKTKPREEQYNSTYRVVSVLTVLHQDWLNGKEYKCKVSNKAFPAPIEKTISKAKGQPREPQVYTLPPSREEMTKNQVSLTCLVKGFYPSDIAVEWESNGQPENNYKTTPPVLDSDGSFFLYSKLTVDKSRWQQGNVFSCSVMHEALHNHYTQKSLSLSPGK
light: B1 light
notes: copies: 2 + 2

target: T1, human FcRIIB/C protein (MednaBio, E1034); assay: BLI
Method in brief: (§1)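 Binding was measured by biolayer interferometry on an Octet Red96 System, with commercial human Fc receptor proteins loaded at 20 μg/mL onto anti-penta-HIS biosensors. Sensors were dipped into an 8-point 1:3 dilution series of test IgG starting at 300 nM in PBS with 0.1% BSA and 0.02% Tween-20. Fcγ receptor assays ran at pH 7.2 and FcRn assays at pH 6. Kd, kon and koff came from global fitting to a 1:1 binding model.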

Kd [nM]	koff [s⁻¹]	kon [M⁻¹ s⁻¹]	Binder
640	0.18	280000	B1
110	0.032	280000	B2
25	0.0051	200000	B3
420	0.11	270000	B4

target: T2, human FcRIIA protein (MednaBio, E1033); assay: BLI
Method in brief: as §1

Kd [nM]	koff [s⁻¹]	kon [M⁻¹ s⁻¹]	Binder
670	0.23	340000	B1
290	0.11	380000	B2
680	0.13	180000	B3
270	0.17	610000	B4

target: T4, human FcRIIIA-V158 protein (MednaBio, E1035) (human, UniProt P08637 17-208); assay: BLI
T4 construct: Bought; also called FcγRIIIA(V); FcgRIIIA(V)
Method in brief: as §1

T4 sequence (P08637 17-208 F176V): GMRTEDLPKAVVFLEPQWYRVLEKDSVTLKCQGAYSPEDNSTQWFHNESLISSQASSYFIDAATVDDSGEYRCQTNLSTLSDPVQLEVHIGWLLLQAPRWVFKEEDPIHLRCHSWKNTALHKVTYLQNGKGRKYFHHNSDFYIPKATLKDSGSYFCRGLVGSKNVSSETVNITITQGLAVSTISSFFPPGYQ

Kd [nM]	koff [s⁻¹]	kon [M⁻¹ s⁻¹]	Binder
290	0.073	250000	B1
87	0.039	440000	B2
86	0.1	1.2e+06	B3
230	0.074	320000	B4

target: T5, human FcRIIIA-F158 protein (MednaBio, E1036) (human, UniProt P08637 17-208); assay: BLI
T5 construct: Bought; also called FcγRIIIA(F)
Method in brief: as §1

T5 sequence (P08637 17-208 limits assumed): as the sequence (P08637 17-208 F176V) above, with V160F counted along it

binding result	Kd [nM]	koff [s⁻¹]	kon [M⁻¹ s⁻¹]	Binder
no binding (tested: 300 nM)				B1
	140	0.05	350000	B2
	180	0.091	520000	B3
	260	0.057	220000	B4

target: T6, human FcRIIIB protein (MednaBio, E1037) (human, UniProt O75015 17-200); assay: BLI
T6 construct: Bought; also called FcγRIIIB; FcgRIIIB
Method in brief: as §1

T6 sequence (O75015 17-200 limits assumed): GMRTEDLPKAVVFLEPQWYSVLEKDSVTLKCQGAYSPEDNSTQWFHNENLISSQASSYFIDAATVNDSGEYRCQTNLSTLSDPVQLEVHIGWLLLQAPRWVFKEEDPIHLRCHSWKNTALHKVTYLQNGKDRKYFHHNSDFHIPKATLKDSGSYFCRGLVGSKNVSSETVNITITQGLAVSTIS

binding result	Binder
no binding (tested: 300 nM)	B1
no binding (tested: 300 nM)	B2
no binding (tested: 300 nM)	B3
no binding (tested: 300 nM)	B4

target: T7, human FcRI protein (MednaBio, E1031) (human, UniProt P12314 16-288, limits assumed); assay: BLI
T7 construct: Bought; loaded on anti-penta-HIS biosensors; also called FcγRI
Method in brief: as §1

T7 sequence (P12314 16-288 limits assumed): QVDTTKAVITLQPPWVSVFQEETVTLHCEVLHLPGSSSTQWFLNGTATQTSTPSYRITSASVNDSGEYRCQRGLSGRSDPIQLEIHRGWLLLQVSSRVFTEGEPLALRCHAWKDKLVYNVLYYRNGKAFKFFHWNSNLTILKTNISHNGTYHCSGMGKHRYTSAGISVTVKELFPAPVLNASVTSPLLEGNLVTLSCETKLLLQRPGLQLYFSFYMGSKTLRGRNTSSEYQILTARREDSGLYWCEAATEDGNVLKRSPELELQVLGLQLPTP

Kd [nM]	koff [s⁻¹]	kon [M⁻¹ s⁻¹]	Binder
1.6	0.00047	300000	B1
2.5	0.0016	630000	B2
3.1	0.0016	510000	B3
2.5	0.0016	630000	B4

target: T8, human FcRn protein (MednaBio, E1032) (human, UniProt P55899 24-297; P61769 21-119); assay: BLI
T8 construct: Bought; assays at pH 6
Method in brief: as §1

Kd [nM]	koff [s⁻¹]	kon [M⁻¹ s⁻¹]	Binder
22	0.0077	350000	B1
15	0.01	670000	B2
19.1	0.0116	607000	B3
16.5	0.0111	673000	B4

target: T1, human FcRIIB/C protein (MednaBio, E1034); assay: BLI; remark: another data set of the same source
Method in brief: as §1

Kd [nM]	koff [s⁻¹]	kon [M⁻¹ s⁻¹]	Binder
46	0.011	250000	B5
670	0.39	580000	B6

target: T2, human FcRIIA protein (MednaBio, E1033); assay: BLI; remark: another data set of the same source
Method in brief: as §1

Kd [nM]	koff [s⁻¹]	kon [M⁻¹ s⁻¹]	Binder
530	0.14	260000	B5
140	0.029	200000	B6

target: T4, human FcRIIIA-V158 protein (MednaBio, …); assay: BLI; remark: another data set of the same source
Method in brief: as §1

binding result	Binder
no binding (tested: 300 nM)	B5
no binding (tested: 300 nM)	B6

target: T5, human FcRIIIA-F158 protein (MednaBio, …); assay: BLI; remark: another data set of the same source
Method in brief: as §1

binding result	Binder
no binding (tested: 300 nM)	B5
no binding (tested: 300 nM)	B6

target: T6, human FcRIIIB protein (MednaBio, E1037); assay: BLI; remark: another data set of the same source
Method in brief: as §1

binding result	Binder
no binding (tested: 300 nM)	B5
no binding (tested: 300 nM)	B6

target: T7, human FcRI protein (MednaBio, E1031); assay: BLI; remark: another data set of the same source
Method in brief: as §1

Kd [nM]	koff [s⁻¹]	kon [M⁻¹ s⁻¹]	Binder
37	0.0098	260000	B5
260	0.21	830000	B6

target: T8, human FcRn protein (MednaBio, E1032); assay: BLI; remark: another data set of the same source
Method in brief: as §1

Kd [nM]	koff [s⁻¹]	kon [M⁻¹ s⁻¹]	Binder
17	0.013	760000	B5
12.8	0.00803	630000	B6

target: T3, human FcγRIIC expressed on CHO cells; assay: FACS, CHO cells expressing FcγRIIC
Experimental: FIGS. 1A-1W are charts showing binding activity of various IgG variants as indicated to different types of Fcγ receptors expressed on CHO-K1 cells at the various concentrations as indicated. The concentrations of each IgG variant, from left to right, are 0 μg/ml, 0.3 μg/ml, 1 μg/ml, 3 μg/ml, and 10 μg/ml in FIGS. 1A-1C, 1E-J, 1L-1M, 1P-1R, and 1T-1V. For FIGS. 1D, 1K, 10, 1S, and 1w the bars, from left to right, correspond to the following concentrations of IgG variant: 0.3 μg/ml, 1 μg/ml, 3 μg/ml, and 10 μg/ml.
For FACS analysis of the IgG mutants' binding to different FcγRs, FcγR overexpressing CHO cells were harvested using trypsin-EDTA and were suspended in cold staining buffer (3% BSA in PBS). Test IgG mutants, which were diluted in staining buffer, were added into the cells. The mixture was incubated 4° C. for 2 hours, and then washed twice with cold staining buffer and re-suspended in PE-labeled anti-human IgG followed by incubation at 4° C. for 2 hours. The mixture was washed twice with staining buffer and re-suspended in 2% PFA in PBS for FACS.

binding result	Binder
binds	B1
binds	B2
binds	B3
binds	B4
